Source: patent US20230190800A1

Biological target: CD48 (UniProt P09326)
Experiment: cell-based or functional assay

UniProt P09326, sequence (P09326 27-220 limits assumed): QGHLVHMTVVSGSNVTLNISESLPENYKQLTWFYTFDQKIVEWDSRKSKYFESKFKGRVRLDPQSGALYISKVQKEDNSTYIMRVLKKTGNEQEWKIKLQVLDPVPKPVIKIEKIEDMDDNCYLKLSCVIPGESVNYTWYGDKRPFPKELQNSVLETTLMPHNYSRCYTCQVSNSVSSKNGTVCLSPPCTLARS

NK cells expressing MIP-1α after incubation with S2 cells expressing B7H7 and CD48: 70%
NK cells with at least 3 different responses after incubation with S2 cells expressing B7H7 and CD48: 10%
Substance: 2B4 (CD244) (from UniProt Q9BZW8 22-370) (receptor)
